This is an account of results in publication PMC2216138 (The Journal of General Physiology, 1988).

For experiment [1], the target named is T1, High-conductance, Ca2+-activated K+ channel from rat skeletal muscle (rat (endogenous in skeletal muscle), UniProt Q62976 1-1209). As to the kind of experiment: single-channel recording in planar lipid bilayers.
Experiment [2] has as its target T1, High-conductance, Ca2+-activated K+ …. As to the kind of experiment: single-channel recording in planar lipid bilayers. The source holds these as a separate data set.

Where two headings read alike, the source gives them in different places.

T1 sequence (Q62976 whole entry): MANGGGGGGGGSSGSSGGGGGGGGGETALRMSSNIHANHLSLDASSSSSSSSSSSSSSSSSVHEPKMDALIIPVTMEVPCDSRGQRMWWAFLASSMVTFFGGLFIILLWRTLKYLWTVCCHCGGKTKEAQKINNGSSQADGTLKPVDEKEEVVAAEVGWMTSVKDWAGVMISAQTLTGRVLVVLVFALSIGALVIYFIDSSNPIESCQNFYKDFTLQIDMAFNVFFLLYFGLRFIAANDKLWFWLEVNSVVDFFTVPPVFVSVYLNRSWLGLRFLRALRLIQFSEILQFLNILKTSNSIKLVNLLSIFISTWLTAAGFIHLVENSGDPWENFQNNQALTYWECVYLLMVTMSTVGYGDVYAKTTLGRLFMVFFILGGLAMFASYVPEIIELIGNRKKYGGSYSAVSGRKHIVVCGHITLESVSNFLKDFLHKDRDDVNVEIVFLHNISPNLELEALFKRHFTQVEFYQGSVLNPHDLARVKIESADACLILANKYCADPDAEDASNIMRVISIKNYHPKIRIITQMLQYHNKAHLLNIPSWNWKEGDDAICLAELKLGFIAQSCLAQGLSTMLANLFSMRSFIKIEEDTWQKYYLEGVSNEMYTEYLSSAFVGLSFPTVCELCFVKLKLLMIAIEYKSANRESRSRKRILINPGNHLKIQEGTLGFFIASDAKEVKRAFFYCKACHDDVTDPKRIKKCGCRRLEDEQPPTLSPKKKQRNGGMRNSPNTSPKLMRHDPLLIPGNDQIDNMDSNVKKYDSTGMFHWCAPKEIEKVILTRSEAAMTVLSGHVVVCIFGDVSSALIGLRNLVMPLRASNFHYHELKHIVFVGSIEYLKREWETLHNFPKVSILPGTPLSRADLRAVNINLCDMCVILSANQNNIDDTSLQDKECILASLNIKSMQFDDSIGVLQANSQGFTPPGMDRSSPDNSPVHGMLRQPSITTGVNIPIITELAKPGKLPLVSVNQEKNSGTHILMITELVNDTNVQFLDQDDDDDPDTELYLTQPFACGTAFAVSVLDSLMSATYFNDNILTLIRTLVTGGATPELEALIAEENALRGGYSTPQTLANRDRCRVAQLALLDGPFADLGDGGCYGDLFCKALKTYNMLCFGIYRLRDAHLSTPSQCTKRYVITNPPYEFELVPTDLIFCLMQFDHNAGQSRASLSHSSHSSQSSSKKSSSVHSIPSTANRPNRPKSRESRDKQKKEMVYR

In the case of QFTNVSCTTSKECWSVCQRLHNTSRGKCMNKKCRCYS (natural protein) [Charybdotoxin], the koff in experiment [1] was ~0.01 s⁻¹; in experiment [2], 0.01 s⁻¹.

One may read the koff as the rate constant with which the complex falls apart.
